According to the supplement of paper PMC11780869:

Tested on: Bacillus subtilis
Test: cleaved RNA product abundance (RNA/gDNA barcode ratio) relative to median wild-type variant (ratio to wild type); higher = more accumulation of the downstream cleavage product
Description: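 MPRA in B. subtilis. Mutagenized RNase Y cleavage-site regions (9% mutation rate) were inserted into a barcoded reporter mRNA (truncated aprE or tetM). Cells were grown in LB at 37°C to OD600 0.3. The cleaved RNA isoform was gel-purified and its barcodes counted; the RNA:gDNA barcode ratio was normalised to the median wild-type variant, and the median over barcodes is reported per variant. The printed sequence is the variable window only; the reporter flanks are not printed.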

[1] = experiment (reporter, strain, medium): exp 4a: truncated aprE reporter, strain BJT201 with 2% xylose (RNase J1 expressed), cleavage site: cggR-gapA (positions -7 to +36 mutated)
[2] = experiment (reporter, strain, medium): exp 2b: truncated aprE reporter, strain BJT200, cleavage site: cggR-gapA (positions -7 to +36 mutated)
[3] = experiment (reporter, strain, medium): exp 8a: truncated aprE reporter, strain BJT201 with 2% xylose (RNase J1 expressed), cleavage site: glnRA (positions -5 to +31 mutated)
[4] = experiment (reporter, strain, medium): exp 6: tetM reporter, strain 168, cleavage site: cggR-gapA (positions -7 to +36 mutated)

ACAGACGAAGGAGCCGCAAAGAAGTTATTAAGTAATAAATAATCCCTCAATATAAATATCTCTCACTTATTTAAA
cleaved RNA product abundance [1]: 0.0519

ACAGACGAAGGAGCCGCAAAGAAGCTATTAAGAGATGAATAATCCCTCAATATAAATATCTCTCACTTATTTAAA
cleaved RNA product abundance [2]: 0.0974
cleaved RNA product abundance [1]: 0.123

ACAGACGAAGGAGCCGCAAAGAAGTTATTAAAGCATGAATAATCCCTCAATATAAATATCTCTCACTTATTTAAA
cleaved RNA product abundance [2]: 0.119
cleaved RNA product abundance [1]: 0.11

ACAGACGAAGGAGCCGCAAAGAAGTTATTAAGTGATGAATAATCCCTCAATTTAAATATCTCTCACTTATTTAAA
cleaved RNA product abundance [2]: 0.0957
cleaved RNA product abundance [1]: 0.0598

CGACATGTCCCGCTTCTTTCATTAATCCGTTAGCGACTGTTTTGCTATATACATTTAACTTTTAAGAGGAGGAAT
cleaved RNA product abundance [3]: 0.418

ACAGACGAAGGAGCCGCAAAGAAATTATTAAGGGATGAATAATCCCTTAATATAAATATCTCTCACTTATTTAAA
cleaved RNA product abundance [1]: 0.451

ACAGACGAAGGAGCCGCAAAGAAGTTATTAAGGGATGAATAATCCGTCAATATAAATATCTCTCACTTATTTAAA
cleaved RNA product abundance [2]: 0.167
cleaved RNA product abundance [1]: 0.234
cleaved RNA product abundance [4]: 0.247

ACAGACGAAGGAGCCGCAAAGAAGTTATTAAGGGACGAATAATCCCTCAATATATATATCTCTCACTTATTTAAA
cleaved RNA product abundance [2]: 0.629
cleaved RNA product abundance [1]: 0.771

ACAGACGAAGGAGCCGCAAAGAAGTTATTAAAGAATGAATAATCCCTCAATATAAATATCTCTCACTTATTTAAA
cleaved RNA product abundance [2]: 0.0737
cleaved RNA product abundance [1]: 0.114

CGACATGTCCCGCTTCTTTCATTAATCCGTTAGCGACTGTTTTGCTATATACATTGACCTTTTAAGAGGAGGAAT
cleaved RNA product abundance [3]: 0.274

ACAGACGAAGGAGCCGCAAAGAAGGTATTAAGGGATGAAAAATCCCTCAATATAAATATCTCTCACTTATTTAAA
cleaved RNA product abundance [2]: 1.25

CGACATGTCCCGCTTCTTTCATTAATCCGTTAGCAACTGTTTTGCGATATACATTTACGTTTTAAGAGGAGGAAT
cleaved RNA product abundance [3]: 0.36

ACAGACGAAGGAGCCGCAAATAAGTTATTCAGGGATGAATAATCCCTCAATATAAATATCTCTCACTTATTTAAA
cleaved RNA product abundance [1]: 1.09

CGACATGTCCCGCTTCTTTCATTAATCCGTTAGCAACTTTATTGCTATATACATTTACCTTTTAAGAGGAGGAAT
cleaved RNA product abundance [3]: 0.922

ACAGACGAAGGAGCCGCAAAGATGTTATTAAGGGATGAATAATTCCTCAATATAAATATCTCTCACTTATTTAAA
cleaved RNA product abundance [1]: 0.89

ACAGACGAAGGAGCCGCAAAGAAGTTAATAAGGGATCAATAATCCCTCAATATAAATATCTCTCACTTATTTAAA
cleaved RNA product abundance [2]: 0.282
cleaved RNA product abundance [1]: 0.316

ACAGACGAAGGAGCCGCAAAGAAGTTATTAAGTGATGAATAATCCCTCAATATAAATACCTCTCACTTATTTAAA
cleaved RNA product abundance [1]: 0.105

ACAGACGAAGGAGCCGCAAAGAAGTTATTAAGGGATGAATAATCCCTCAGAATAAATATCTCTCACTTATTTAAA
cleaved RNA product abundance [1]: 0.197

ACAGACGAAGGAGCCGCAAAGAAGTTATTAAGGGATGAATAATCCCTCAATATAATTACCTCTCACTTATTTAAA
cleaved RNA product abundance [1]: 0.435

ACAGACGAAGGAGCCGCAAAGAAGTTATTAAGGAGTGAATAATCCCTCAATATAAATATCTCTCACTTATTTAAA
cleaved RNA product abundance [1]: 0.171

ACAGACGAAGGAGCCGCAAAGAAATTCTTAAGGGATGAATAATCCCTCAATATAAATATCTCTCACTTATTTAAA
cleaved RNA product abundance [2]: 0.186
cleaved RNA product abundance [1]: 0.199

ACAGACGAAGGAGCCGCAAAGAAGTTATTAAGGGATGAATCTTCCCTCAATATAAATATCTCTCACTTATTTAAA
cleaved RNA product abundance [1]: 1.05

CGACATGTCCCGCTTCTTTCATTAATCCGTTAGCAACAGTTTTGCTATATACAATTACCTTTTAAGAGGAGGAAT
cleaved RNA product abundance [3]: 0.601

ACAGACGAAGGAGCCGCAAAGAATTTAGTAAGGGATGAATAATCCCTCAATATAAATATCTCTCACTTATTTAAA
cleaved RNA product abundance [1]: 0.337

CGACATGTCCCGCTTCTTTCATTAATCTGTTAGCAACTGTTTTGCTATATACATTTACTTTTTAAGAGGAGGAAT
cleaved RNA product abundance [3]: 1.68

ACAGACGAAGGAGCCGCAATGAAGATATTAAGGGATGAATAATCCCTCAATATAAATATCTCTCACTTATTTAAA
cleaved RNA product abundance [1]: 0.667

ACAGACGAAGGAGCCGCAAAGAAGTTATTAAGTGATGACTAATCCCTCAATATAAATATCTCTCACTTATTTAAA
cleaved RNA product abundance [2]: 0.081
cleaved RNA product abundance [1]: 0.111

CGACATGTCCCGCTTCTTTCATTAATCCGTTCCCAACTGTTTTGCTATATACATTTACCTTTTAAGAGGAGGAAT
cleaved RNA product abundance [3]: 0.392

ACAGACGAAGGAGCCGCAAAGAAGTTATTAAGTTATGAATAATCCGTCAATATAAATATCTCTCACTTATTTAAA
cleaved RNA product abundance [2]: 0.078

ACAGACGAAGGAGCCGCAAAAAAGTTATTAAGGGATGAATAATCCCTCACTATAAATATCTCTCACTTATTTAAA
cleaved RNA product abundance [1]: 0.537

CGACATGTCCCGCTTCTTTCATTAATCCGTTAGAAACTGTTTTGCTATTTACATTTACCTTTTAAGAGGAGGAAT
cleaved RNA product abundance [3]: 0.127

ACAGACGAAGGAGCCGCAAAGAAGTTCTTAAGGGATGAATAATCCCTCAATATAAATAACTCTCACTTATTTAAA
cleaved RNA product abundance [1]: 0.162

ACAGACGAAGGAGCCGCAAATAAGTTATTAAGGGATGAATAATCCCTCAATATAGATATCTCTCACTTATTTAAA
cleaved RNA product abundance [2]: 0.715
cleaved RNA product abundance [1]: 0.649

ACAGACGAAGGAGCCGCAAAGTAGTTATTAAGGGATGAATAATCCCTCCATATAAATATCTCTCACTTATTTAAA
cleaved RNA product abundance [2]: 0.299
cleaved RNA product abundance [1]: 0.487

ACAGACGAAGGAGCCGCAAGGAAGTTATTAACGGATGAATAATCCCTCAATATAAATATCTCTCACTTATTTAAA
cleaved RNA product abundance [1]: 0.121

ACAGACGAAGGAGCCGCAAAGAAGTTATTAAGGGATTAATAATCCCTCAGTATAAATATCTCTCACTTATTTAAA
cleaved RNA product abundance [1]: 0.224

ACAGACGAAGGAGCCGCAATGAAGTTATTAAGGAATGAATAATCCCTCAATATAAATATCTCTCACTTATTTAAA
cleaved RNA product abundance [2]: 0.131
cleaved RNA product abundance [1]: 0.102

CGACATGTCCCGCTTCTTTCATTACTCCGTTAACAACTGTTTTGCTATATACATTTACCTTTTAAGAGGAGGAAT
cleaved RNA product abundance [3]: 0.261

CGACATGTCCCGCTTCTTTCATTAATACGTTAGCAAGTGTTTTGCTATATACATTTACCTTTTAAGAGGAGGAAT
cleaved RNA product abundance [3]: 0.882

ACAGACGAAGGAGCCGCAAAGAAGTTATTAAGGGACGAATAATCCCTAAATATAAATATCTCTCACTTATTTAAA
cleaved RNA product abundance [1]: 0.287

CGACATGTCCCGCTTCTTTCATTAAACCGTTAGCAACTGTTTTGCTATATCCATTTACCTTTTAAGAGGAGGAAT
cleaved RNA product abundance [3]: 0.0869

ACAGACGAAGGAGCCGCAAATAAGTTATTAAGGGAGGAATAATCCCTCAATATAAATATCTCTCACTTATTTAAA
cleaved RNA product abundance [2]: 0.554
cleaved RNA product abundance [1]: 0.469

ACAGACGAAGGAGCCGCAAAGAAGTTATTAACGGATGAATAATCCATCAATATAAATATCTCTCACTTATTTAAA
cleaved RNA product abundance [2]: 0.138
cleaved RNA product abundance [1]: 0.233

ACAGACGAAGGAGCCGCAAAGAAGTTATTAAGGGATGTATAATCCATCAATATAAATATCTCTCACTTATTTAAA
cleaved RNA product abundance [2]: 0.175
cleaved RNA product abundance [1]: 0.238

ACAGACGAAGGAGCCGCAAAGAAGTTATTAAGGGATGTATAATCCCTAAATATAAATATCTCTCACTTATTTAAA
cleaved RNA product abundance [2]: 0.551
cleaved RNA product abundance [1]: 0.748

ACAGACGAAGGAGCCGCAAAGAAGTTATTAAGGGATGAATAAGCCCTAAATATAAATATCTCTCACTTATTTAAA
cleaved RNA product abundance [2]: 0.342
cleaved RNA product abundance [1]: 0.528

ACAGACGAAGGAGCCGCAAAGAAGATATTAAGGGATGAATAATCCCTCAATATAAAGATCTCTCACTTATTTAAA
cleaved RNA product abundance [1]: 0.559

ACAGACGAAGGAGCCGCAAAGAAGTTATTAAGGAATGAATAATCCCTCTATATAAATATCTCTCACTTATTTAAA
cleaved RNA product abundance [2]: 0.12
cleaved RNA product abundance [1]: 0.119

ACAGACGAAGGAGCCGCAAAGAAGTTATTAAGGGCTTAATAATCCCTCAATATAAATATCTCTCACTTATTTAAA
cleaved RNA product abundance [1]: 0.481

CGACATGTCCCGCTTCTTTCATTAATCCGTTAGATACTGTTTTGCTATATACATTTACCTTTTAAGAGGAGGAAT
cleaved RNA product abundance [3]: 0.273

ACAGACGAAGGAGCCGCAAAGAAGTTATTAAGTGATGAATAATCCCTCAATAAAAATATCTCTCACTTATTTAAA
cleaved RNA product abundance [1]: 0.0655
cleaved RNA product abundance [4]: 0.11

CGACATGTCCCGCTTCTTTCATTAATCCGTTAGCAACTGTTTTGCCAGATACATTTACCTTTTAAGAGGAGGAAT
cleaved RNA product abundance [3]: 0.286

ACAGACGAAGGAGCCGCGAAGAAGTTATTAAGGGATTAATAATCCCTCAATATAAATATCTCTCACTTATTTAAA
cleaved RNA product abundance [1]: 1.19

ACAGACGAAGGAGCCGCAAAGAAGTTATTATGGGATGAATAATCCCTCAATATAGATATCTCTCACTTATTTAAA
cleaved RNA product abundance [1]: 0.323

ACAGACGAAGGAGCCGCAAAGAAGTTATTAAGGGATAAATAATCCCTTAATATAAATATCTCTCACTTATTTAAA
cleaved RNA product abundance [2]: 0.71
cleaved RNA product abundance [1]: 0.48

CGACATGTCCCGCTTCTTTCATTAACCCGTTAGCAACTGTTTTGCTATATACCTATACCTTTTAAGAGGAGGAAT
cleaved RNA product abundance [3]: 0.789

ACAGACGAAGGAGCCGCAAAGAAGTTATTAAGGGATGAATAATCCCCTAATATAAATATCTCTCACTTATTTAAA
cleaved RNA product abundance [1]: 1.25
